Source: ChEMBL document CHEMBL1129705, “Synthesis of phosphinic acid transition state analogues for the reaction catalysed by kynureninase” (Bioorg Med Chem Lett, 1996)

Substrate: Nc1ccccc1C(=O)C[C@H](N)C(=O)O
Conditions: Pseudomonas fluorescens
Description: Compound was evaluated for its binding affinity against kynureninase isolated from Pseudomonas fluorescence

B1: Kynureninase (Homo sapiens), Q16719 (protein)
chain: MEPSSLELPADTVQRIAAELKCHPTDERVALHLDEEDKLRHFRECFYIPKIQDLPPVDLSLVNKDENAIYFLGNSLGLQPKMVKTYLEEELDKWAKIAAYGHEVGKRPWITGDESIVGLMKDIVGANEKEIALMNALTVNLHLLMLSFFKPTPKRYKILLEAKAFPSDHYAIESQLQLHGLNIEESMRMIKPREGEETLRIEDILEVIEKEGDSIAVILFSGVHFYTGQHFNIPAITKAGQAKGCYVGFDLAHAVGNVELYLHDWGVDFACWCSYKYLNAGAGGIAGAFIHEKHAHTIKPALVGWFGHELSTRFKMDNKLQLIPGVCGFRISNPPILLVCSLHASLEIFKQATMKALRKKSVLLTGYLEYLIKHNYGKDKAATKKPVVNIITPSHVEERGCQLTITFSVPNKDVFQELEKRGVVCDKRNPNGIRVAPVPLYNSFHDVYKFTNLLTSILDSAETKN
  Km: 25.6 µM
